{"source": "patent US20120100140A1", "binders": {"B1": {"name": "YC403 (hu5c8 aglycosylated IgG4.P S228P, T299A, T307P, L309K, D399S) (antibody)", "heavy": "QVQLVQSGAEVVKPGASVKLSCKASGYIFTSYYMYWVKQAPGQGLEWIGEINPSNGDTNFNEKFKSKATLTVDKSASTAYMELSSLRSEDTAVYYCTRSDGRNDMDSWGQGTLVTVSSASTKGPSVFPLAPCSRSTSESTAALGCLVKDYFPEPVTVSWNSGALTSGVHTFPAVLQSSGLYSLSSVVTVPSSSLGTKTYTCNVDHKPSNTKVDKRVESKYGPPCPPCPAPEFLGGPSVFLFPPKPKDTLMISRTPEVTCVVVDVSQEDPEVQFNWYVDGVEVHNAKTKPREEQFNSAYRVVSVLPVKHQDWLNGKEYKCKVSNKGLPSSIEKTISKAKGQPREPQVYTLPPSQEEMTKNQVSLTCLVKGFYPSDIAVEWESNGQPENNYKTTPPVLSSDGSFFLYSRLTVDKSRWQEGNVFSCSVMHEALHNHYTQKSLSLSLG", "light": "DIVLTQSPATLSVSPGERATISCRASQRVSSSTYSYMHWYQQKPGQPPKLLIKYASNLESGVPARFSGSGSGTDFTLTISSVEPEDFATYYCQHSWEIPPTFGGGTKLEIKRTVAAPSVFIFPPSDEQLKSGTASVVCLLNNFYPREAKVQWKVDNALQSGNSQESVTEQDSKDSTYSLSSTLTLSKADYEKHKVYACEVTHQGLSSPVTKSFNRGEC", "modifications": "chain 1 pos 1: N-terminal Gln largely converted to pyroglutamate, written Q; Fc aglycosylated"}, "B2": {"name": "YC401 (hu5c8 aglycosylated IgG4.P S228P, T299A, T307P, D399S) (antibody)", "heavy": "QVQLVQSGAEVVKPGASVKLSCKASGYIFTSYYMYWVKQAPGQGLEWIGEINPSNGDTNFNEKFKSKATLTVDKSASTAYMELSSLRSEDTAVYYCTRSDGRNDMDSWGQGTLVTVSSASTKGPSVFPLAPCSRSTSESTAALGCLVKDYFPEPVTVSWNSGALTSGVHTFPAVLQSSGLYSLSSVVTVPSSSLGTKTYTCNVDHKPSNTKVDKRVESKYGPPCPPCPAPEFLGGPSVFLFPPKPKDTLMISRTPEVTCVVVDVSQEDPEVQFNWYVDGVEVHNAKTKPREEQFNSAYRVVSVLPVLHQDWLNGKEYKCKVSNKGLPSSIEKTISKAKGQPREPQVYTLPPSQEEMTKNQVSLTCLVKGFYPSDIAVEWESNGQPENNYKTTPPVLSSDGSFFLYSRLTVDKSRWQEGNVFSCSVMHEALHNHYTQKSLSLSLG", "light": "DIVLTQSPATLSVSPGERATISCRASQRVSSSTYSYMHWYQQKPGQPPKLLIKYASNLESGVPARFSGSGSGTDFTLTISSVEPEDFATYYCQHSWEIPPTFGGGTKLEIKRTVAAPSVFIFPPSDEQLKSGTASVVCLLNNFYPREAKVQWKVDNALQSGNSQESVTEQDSKDSTYSLSSTLTLSKADYEKHKVYACEVTHQGLSSPVTKSFNRGEC", "modifications": "chain 1 pos 1: N-terminal Gln largely converted to pyroglutamate, written Q; Fc aglycosylated"}, "B3": {"name": "EC326 (hu5c8 IgG4.P S228P, T307P, L309K, D399S, glycosylated) (antibody)", "heavy": "QVQLVQSGAEVVKPGASVKLSCKASGYIFTSYYMYWVKQAPGQGLEWIGEINPSNGDTNFNEKFKSKATLTVDKSASTAYMELSSLRSEDTAVYYCTRSDGRNDMDSWGQGTLVTVSSASTKGPSVFPLAPCSRSTSESTAALGCLVKDYFPEPVTVSWNSGALTSGVHTFPAVLQSSGLYSLSSVVTVPSSSLGTKTYTCNVDHKPSNTKVDKRVESKYGPPCPPCPAPEFLGGPSVFLFPPKPKDTLMISRTPEVTCVVVDVSQEDPEVQFNWYVDGVEVHNAKTKPREEQFNSTYRVVSVLPVKHQDWLNGKEYKCKVSNKGLPSSIEKTISKAKGQPREPQVYTLPPSQEEMTKNQVSLTCLVKGFYPSDIAVEWESNGQPENNYKTTPPVLSSDGSFFLYSRLTVDKSRWQEGNVFSCSVMHEALHNHYTQKSLSLSLG", "light": "DIVLTQSPATLSVSPGERATISCRASQRVSSSTYSYMHWYQQKPGQPPKLLIKYASNLESGVPARFSGSGSGTDFTLTISSVEPEDFATYYCQHSWEIPPTFGGGTKLEIKRTVAAPSVFIFPPSDEQLKSGTASVVCLLNNFYPREAKVQWKVDNALQSGNSQESVTEQDSKDSTYSLSSTLTLSKADYEKHKVYACEVTHQGLSSPVTKSFNRGEC", "modifications": "heavy chain pos 1: Gln largely converted to pyroglutamate (Table 3.3), written Q; N-linked glycan (G0F, G1F, G2F, G0) at EU N297 = heavy chain pos 295"}, "B4": {"name": "EC331 (hu5c8 aglycosylated IgG4.P T299K, T307P with IgG1 CH3) (antibody)", "heavy": "QVQLVQSGAEVVKPGASVKLSCKASGYIFTSYYMYWVKQAPGQGLEWIGEINPSNGDTNFNEKFKSKATLTVDKSASTAYMELSSLRSEDTAVYYCTRSDGRNDMDSWGQGTLVTVSSASTKGPSVFPLAPCSRSTSESTAALGCLVKDYFPEPVTVSWNSGALTSGVHTFPAVLQSSGLYSLSSVVTVPSSSLGTKTYTCNVDHKPSNTKVDKRVESKYGPPCPPCPAPEFLGGPSVFLFPPKPKDTLMISRTPEVTCVVVDVSQEDPEVQFNWYVDGVEVHNAKTKPREEQFNSKYRVVSVLPVLHQDWLNGKEYKCKVSNKGLPSSIEKTISKAKGQPREPQVYTLPPSRDELTKNQVSLTCLVKGFYPSDIAVEWESNGQPENNYKTTPPVLDSDGSFFLYSKLTVDKSRWQQGNVFSCSVMHEALHNHYTQKSLSLSPG", "light": "DIVLTQSPATLSVSPGERATISCRASQRVSSSTYSYMHWYQQKPGQPPKLLIKYASNLESGVPARFSGSGSGTDFTLTISSVEPEDFATYYCQHSWEIPPTFGGGTKLEIKRTVAAPSVFIFPPSDEQLKSGTASVVCLLNNFYPREAKVQWKVDNALQSGNSQESVTEQDSKDSTYSLSSTLTLSKADYEKHKVYACEVTHQGLSSPVTKSFNRGEC", "modifications": "chain 1 pos 1: N-terminal Gln largely converted to pyroglutamate, written Q; Fc aglycosylated"}}, "key": {"[1]": {"target": "CD64 (FcγRI) (UniProt P12314)", "sequence (P12314 16-288 limits assumed)": "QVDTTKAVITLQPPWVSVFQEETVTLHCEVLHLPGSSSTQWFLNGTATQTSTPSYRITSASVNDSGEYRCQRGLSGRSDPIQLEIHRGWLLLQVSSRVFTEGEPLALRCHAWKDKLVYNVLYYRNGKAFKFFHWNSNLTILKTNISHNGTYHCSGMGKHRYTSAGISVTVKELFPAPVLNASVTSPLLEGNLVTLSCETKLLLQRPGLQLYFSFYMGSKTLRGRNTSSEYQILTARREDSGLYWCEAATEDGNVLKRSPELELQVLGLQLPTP", "test": "solution affinity SPR: antibody titrated into CD64, inhibition of CD64 binding to immobilized IgG1 MAb; average of two titrations"}, "[2]": {"target": "CD64 (FcγRI) (UniProt P12314)", "test": "solution affinity SPR: inhibition of CD64 binding to immobilized IgG1 MAb"}, "[3]": {"target": "CD16 (FcγRIIIa V158) (UniProt P08637)", "sequence (P08637 17-208 F176V limits assumed)": "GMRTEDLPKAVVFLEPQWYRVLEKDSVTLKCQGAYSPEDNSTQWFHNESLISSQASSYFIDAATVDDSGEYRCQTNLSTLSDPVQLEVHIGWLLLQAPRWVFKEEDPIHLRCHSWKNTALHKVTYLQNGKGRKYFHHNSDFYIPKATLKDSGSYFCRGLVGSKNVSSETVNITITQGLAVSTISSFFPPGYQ", "test": "solution affinity SPR: antibody titrated into CD16, inhibition of CD16 binding to immobilized IgG1 MAb; average of two titrations"}}}
{"binder": "B1", "values": [{"measurement": "IC50", "setting": "[1]", "value": 434, "unit": "µM"}]}
{"binder": "B2", "values": [{"measurement": "IC50", "setting": "[1]", "value": 377, "unit": "µM"}]}
{"binder": "B3", "values": [{"measurement": "IC50", "setting": "[2]", "value": 8, "unit": "µM"}, {"measurement": "IC50", "setting": "[3]", "value": 380, "unit": "µM"}, {"measurement": "IC50", "setting": "[1]", "value": 7.56, "unit": "µM"}]}
{"binder": "B4", "values": [{"measurement": "IC50", "setting": "[1]", "value": 2600, "unit": "µM"}]}
